Assay [1] has as its target human PD‐L1 (hPD‐L1), soluble, biotinylated (human) (UniProt Q9NZQ7). The assay can be described thus: SPR. In general terms: Surface plasmon resonance follows binding to a sensor surface in real time, without labels.
The target in assay [2] is human PD‐L2 (hPD‐L2), soluble (human) (UniProt Q9BQ51). The assay can be described thus: SPR.
Assay [3] deals with human PD‐L1 on the surface of tumor cells (human) (UniProt Q9NZQ7). The assay can be described thus: flow cytometry on cells. In general terms: A flow cytometer gives signals particle by particle.
The target in assay [4] is human PD‐L2 on mature dendritic cells (human) (UniProt Q9BQ51). The experiment in a line: flow cytometry on cells.

Usually Kd stands for a measure of binding affinity in units of concentration. As a reminder, the koff is the first-order rate constant of dissociation. For the substance “L4C11, PD‐1 variant with a single‐site mutation from glycine to valine (G124V) (designed binder)”, in assay [1], the dissociation constant (Kd) came out at 93.7 nM, the T1/2 was 8.25 s and the koff was determined as 0.121 s⁻¹.

As usually defined, the EC50 is the concentration giving half of the maximal effect. In assay [1], “L5B7, high‐affinity PD‐1 variant (G124S, K131Y, A132I) (designed binder)” returned a Kd of 0.687 nM and a koff of 0.002 s⁻¹. In assay [2], this substance had an equilibrium dissociation constant (Kd) of 13.7 nM, a T1/2 of 78.1 s and a koff of 0.0128 s⁻¹. In assay [3], this substance had a 50% effective concentration (EC50) of 2.9 nM. Also, in assay [4], the percent reduction of the MFI of anti-PD-L2 Ab (M1H18) at 1.0 × 10^-5 mol/L L5B7 was greater than 40%.

“hPD‐1 A132I point mutant (domain or fragment)” registered a dissociation constant (Kd) in assay [1] of 9.9 nM.

In assay [1], “hPD‐1 with the combined mutation of G124V and A132I (domain or fragment)” returned a dissociation constant (Kd) of 0.97 nM.

As to “soluble human PD‐1 (hPD‐1) (domain or fragment)”, the Kd was found to be 2650 nM in assay [1] and 1050 nM in assay [2]. This substance also yielded a T1/2 in assay [2] of 2.68 s. Moreover, the EC50 in assay [3] worked out at 4860 nM.

The values above are taken from publication PMC6113430.
